Assay results reported in patent publication US20230058519A1 (SHANGHAI CELL THERAPY GROUP, published 2023).

Experiments:
MSLN-His antigen [1] = target: T1, MSLN-His antigen (UniProt Q13421 296-580, limits assumed); assay: SPR as in Example 2, MSLN His antigen
T1 construct: also called MSLN-His protein; MSLN antigen

[2] = target: mesothelin (MSLN) expressed on cells (UniProt Q13421); assay: flow cytometry on HEK293T-MSLN cells, serial dilution
BCMA-His antigen = target: T2, BCMA-His antigen (UniProt Q02223 1-54); assay: SPR, BCMA-his coupled on CM5 chip, TCP as analyte, 1:1 fit
T2 construct: also called BMCA antigen
T2 sequence (looked up): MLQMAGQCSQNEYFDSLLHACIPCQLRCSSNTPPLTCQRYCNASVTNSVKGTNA
Description: First the binding affinity of the purified BCMA-TCPs against BMCA antigen was assessed by SPR. BCMA-his antigen was coupled onto a CM5 chip (GE Healthcare Life Sciences), and then a variety of anti-BCMA BsAbs were flowed at the flow rate of 10 uL/min with dissociation time of 900s. Binding kinetics were determined with a 1:1 fit model.

BCMA expressed on cells = target: T3, BCMA expressed on cells (UniProt Q02223 1-184, limits assumed); assay: flow cytometry on CHOK1-BCMA+ cells; unit taken from the axis 'Conc.(nM)'
T3 construct: whole, on cells; also called CHOK1-BCMA cell line; BCMA over-expression cell line
T3 sequence (looked up): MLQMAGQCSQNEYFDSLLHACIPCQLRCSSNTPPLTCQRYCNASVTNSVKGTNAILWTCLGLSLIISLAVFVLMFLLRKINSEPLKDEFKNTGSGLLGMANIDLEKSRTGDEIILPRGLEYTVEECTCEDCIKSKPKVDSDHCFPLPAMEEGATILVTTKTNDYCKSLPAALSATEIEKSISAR
Description: The binding bioactivity for mesothelin and BCMA over-expressing cells was evaluated by flow cytometry. Stable cell lines were harvested using 0.25% Trypsin.
About 5E5 cells were collected per sample, and the cells were resuspended in 100 μL/well tested antibodies with His-tag. Then the cells were incubated with anti-His-tag antibody (Genscript, China) and Streptavidin-PE (Biolegend, China). The incubation step of each step was performed at 4° C. in the dark for 1 hr, and then the cells were washed 2× with 200 μL PBS buffer. The washed cells were resuspended in 200 μL PBS buffer and the sample was analyzed by FACS.

[3] = target: mesothelin (MSLN) expressed on cells (UniProt Q13421); assay: flow cytometry on 293T-MSLN+ cells; unit taken from the axis 'Conc.(nM)'
[4] = target: mesothelin (MSLN) expressed on cells (UniProt Q13421); assay: flow cytometry on HEK293T-MSLN cells, serial dilution, anti-human IgG PE detection
MSLN-His antigen [5] = target: T1, MSLN-His antigen; assay: SPR (Biacore), VHH-hFc captured on protein A chip, MSLN-His as analyte
Description: The antibody was expressed as a hFc fusion protein, named as M2339(VHH) with the procedure that was described in the patent publication WO2020176815A2 (hereby incorporated by reference in its entirety and for all purposes). The binding affinity of M2339(VHH) towards MSLN antigen was tested by surface plasmon resonance (SPR). First, M2339(VHH) was passed through the sensor chip with protein A immobilized in advance, and the antibody was captured by protein A. Then, five different concentrations of MSLN-His protein were used as the mobile phase, and the binding time and dissociation time were 30 min and 60 min, respectively. Biacore evaluation software 2.0 (GE) was used to analyze the on-rate (kₒₙ), off-rate (koff) and equilibrium constant (KD).

MSLN Full - Fc = target: T4, MSLN Full - Fc (UniProt Q13421 296-598, limits assumed); assay: SPR, MSLN domain-Fc captured on protein A chip, M2339 VHH-6his as analyte, 1:1 fit
T4 construct: domain: MSLN Full (mesothelin ECD); also called mesothelin-full; complete mesothelin polypeptide; not shown: human Fc
T4 sequence (Q13421 other isoform, or with tags, fused parts or gaps limits assumed): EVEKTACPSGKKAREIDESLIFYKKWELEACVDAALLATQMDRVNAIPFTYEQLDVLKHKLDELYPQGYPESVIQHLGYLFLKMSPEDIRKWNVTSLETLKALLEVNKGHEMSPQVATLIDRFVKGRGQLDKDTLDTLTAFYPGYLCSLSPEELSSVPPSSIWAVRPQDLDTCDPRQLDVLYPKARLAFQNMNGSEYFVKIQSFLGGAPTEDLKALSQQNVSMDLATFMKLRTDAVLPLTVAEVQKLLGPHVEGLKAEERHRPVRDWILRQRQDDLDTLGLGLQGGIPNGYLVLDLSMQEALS
Description: (§1) Affinity was determined by SPR. Protein A chip was used to capture different antigens, various concentrations of M2339(VHH) were injected at a flow rate of 10 μl/min with an association time of 120 to 180 seconds and a dissociation time from 180 to 1200 seconds. Binding kinetics were determined using Biacore Evaluation software in a 1:1 fit model.

MSLN I - Fc = target: T5, MSLN I - Fc (UniProt Q13421 296-390, limits assumed); assay: as above
T5 construct: domain: MSLN I; also called mesothelinI; not shown: human Fc
T5 sequence (Q13421 296-390 limits assumed): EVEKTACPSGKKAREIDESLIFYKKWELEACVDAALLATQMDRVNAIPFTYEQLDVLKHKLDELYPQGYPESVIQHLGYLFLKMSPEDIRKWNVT
Description: as §1

MSLN I + II - Fc = target: T6, MSLN I + II - Fc (UniProt Q13421 296-486, limits assumed); assay: as above
T6 construct: domain: MSLN I + II; not shown: human Fc
T6 sequence (Q13421 other isoform, or with tags, fused parts or gaps limits assumed): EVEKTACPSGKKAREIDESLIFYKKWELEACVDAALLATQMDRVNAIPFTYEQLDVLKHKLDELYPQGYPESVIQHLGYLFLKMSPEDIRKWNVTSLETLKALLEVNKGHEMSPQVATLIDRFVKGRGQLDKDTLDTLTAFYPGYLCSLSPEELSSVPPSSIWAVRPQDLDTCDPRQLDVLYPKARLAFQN
Description: as §1

MSLN II - Fc = target: T7, MSLN II - Fc (UniProt Q13421 391-486, limits assumed); assay: as above
T7 construct: domain: MSLN II; not shown: human Fc
T7 sequence (Q13421 other isoform, or with tags, fused parts or gaps limits assumed): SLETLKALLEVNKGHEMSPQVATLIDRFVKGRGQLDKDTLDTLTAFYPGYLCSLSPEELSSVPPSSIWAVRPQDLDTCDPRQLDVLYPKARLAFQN
Description: as §1

MSLN II + III - Fc = target: T8, MSLN II + III - Fc (Homo sapiens (Human), UniProt Q13421 391-598); assay: as above
T8 construct: also called mesothelinII+III; mesothelinII+III domain; not shown: human Fc
T8 sequence (Q13421 other isoform, or with tags, fused parts or gaps limits assumed): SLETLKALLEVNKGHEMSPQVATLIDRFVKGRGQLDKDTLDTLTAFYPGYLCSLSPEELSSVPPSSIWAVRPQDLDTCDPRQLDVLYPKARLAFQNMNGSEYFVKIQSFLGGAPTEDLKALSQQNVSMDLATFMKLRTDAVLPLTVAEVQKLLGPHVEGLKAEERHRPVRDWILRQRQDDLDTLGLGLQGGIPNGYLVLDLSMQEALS
Description: as §1

MSLN III - Fc = target: T9, MSLN III - Fc (UniProt Q13421 487-598, limits assumed); assay: as above
T9 construct: domain: MSLN III; not shown: human Fc
T9 sequence (Q13421 495-606 limits assumed): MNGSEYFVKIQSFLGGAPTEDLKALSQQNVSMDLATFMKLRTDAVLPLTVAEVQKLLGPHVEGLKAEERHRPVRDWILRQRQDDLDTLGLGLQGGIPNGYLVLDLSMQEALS
Description: as §1

[6] = target: mesothelin (MSLN) expressed on cells (UniProt Q13421); assay: flow cytometry on 293T-MSLN-Full cells; unit taken from the axis 'Conc.(nM)'
CD19 expressed on cells = target: T10, CD19 expressed on cells (UniProt P15391 20-556, limits assumed); assay: flow cytometry on CHO/K1-CD19 cells; unit taken from the axis 'Conc.(nM)'; the curve is still rising at the last point (MFI about 5000 at about 400 nM)
T10 construct: whole, on cells; also called CD19 over-expression cell line; CD19 over-expressing cells
T10 sequence (looked up): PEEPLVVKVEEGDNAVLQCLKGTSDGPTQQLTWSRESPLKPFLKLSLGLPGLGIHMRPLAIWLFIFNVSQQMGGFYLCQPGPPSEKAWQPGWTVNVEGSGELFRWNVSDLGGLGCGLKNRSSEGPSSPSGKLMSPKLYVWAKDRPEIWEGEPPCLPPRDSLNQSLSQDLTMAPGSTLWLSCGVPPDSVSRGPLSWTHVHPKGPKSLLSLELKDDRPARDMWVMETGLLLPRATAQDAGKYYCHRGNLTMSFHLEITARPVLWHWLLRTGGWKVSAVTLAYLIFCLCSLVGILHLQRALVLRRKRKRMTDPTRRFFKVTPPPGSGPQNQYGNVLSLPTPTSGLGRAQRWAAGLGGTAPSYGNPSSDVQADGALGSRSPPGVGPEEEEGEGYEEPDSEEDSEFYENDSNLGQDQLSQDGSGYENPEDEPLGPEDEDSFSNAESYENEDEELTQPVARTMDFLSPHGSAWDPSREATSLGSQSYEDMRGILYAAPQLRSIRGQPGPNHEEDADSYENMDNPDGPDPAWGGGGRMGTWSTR

T1 sequence (Q13421 other isoform, or with tags, fused parts or gaps limits assumed): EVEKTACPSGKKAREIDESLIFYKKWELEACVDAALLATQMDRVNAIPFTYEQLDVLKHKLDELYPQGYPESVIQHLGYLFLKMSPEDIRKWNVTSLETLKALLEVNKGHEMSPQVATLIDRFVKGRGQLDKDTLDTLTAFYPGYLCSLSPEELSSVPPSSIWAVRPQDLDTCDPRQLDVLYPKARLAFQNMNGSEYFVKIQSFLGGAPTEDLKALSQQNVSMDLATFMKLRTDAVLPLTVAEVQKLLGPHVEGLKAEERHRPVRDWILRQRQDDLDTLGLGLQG

B1: anti-MSLN-1444 VHH (Fc fusion, not shown: a dimerising Fc or GST)
chain: QVQVVESGGGFVQAGGSLRLSCAASTPIISIAYMGWYRQISEKERQLVATINSGGKTYYADSVKGRFTISRDNAKNTLYLQMNMLKPEDTGMYYCAASNKDYNDYDPDWGQGTQVTVSS
MSLN-His antigen [1]
  Kd: 2.1 nM
  koff: 7.5e-05 s⁻¹
  kon: 53700 M⁻¹ s⁻¹
[2]
  EC50 (read off the curve): 10 nM

B2: TCP-MC (VHH)
VHH: QVQLVESGGGLVQPGGSLRLSCAASGSITSIYAIGWYRQAPGKLRELVAAITTSGNTFYRDSVKGRFTISRDNAKNTVSLQMNSLKSEDTAVYDCNGAPWGDHAPLVVSWDQGTQVTVSS
notes: also called MC001C
BCMA-His antigen
  Kd: 0.138 nM
  koff: 0.000546 s⁻¹
  kon: 3.96e+06 M⁻¹ s⁻¹

B3: TCP003-C (bispecific antibody)
chain: QLQLGASGGGLVQPGGSLRLSCALSGFTLRELDEFAIGWFRQAPGKEREGVSCISGTGGITHYADSVKGRFTISRDIAKTTVYLQMNSLNSEDTAVYYCAADERCTDRLIRPPTYWGQGTQVTVSSGGGGSAAAGQPREPQVYTLPPSQEEMTKNQVSLTCLVKGFYPSDIAVEWESNGQPENNYKTTPPVLDSDGSFFLYSRLTVDKSRWQEGNVFSCSVMHEALHNHYTQKSLSLSLGKGGGGSGGGGSGGGGSQVQLVESGGGLVQPGGSLRLSCAASGSITSIYAIGWYRQAPGKLRELVAAITTSGNTFYRDSVKGRFTISRDNAKNTVSLQMNSLKSEDTAVYDCNGAPWGDHAPLVVSWDQGTQVTVSSGGGGSEQKLISEEDLGGGGSHHHHHH
notes: also called TCP0031-C (as misprinted); BCMA-TCP
BCMA expressed on cells
  EC50: 22.3 nM
BCMA-His antigen
  Kd: 7.04 nM
  koff: 0.000298 s⁻¹
  kon: 42300 M⁻¹ s⁻¹
[3]
  EC50: 4.32 nM

B4: TCP001-P (bispecific antibody)
chain: QLQLGASGGGLVQPGGSLRLSCALSGFTLRELDEFAIGWFRQAPGKEREGVSCISGTGGITHYADSVKGRFTISRDIAKTTVYLQMNSLNSEDTAVYYCAADERCTDRLIRPPTYWGQGTQVTVSSGGGGSGGGGSGGGGSDIVLTQSPASLAMSLGERATISCRASESVSVIGAHLIHWYQQKPGQPPKLLIYLASNLETGVPARFSGSGSGTDFTLTISRVQAEDAAIYSCLQSRIFPRTFGQGTKLEIKGSTSGSGKPGSGEGSTKGQVQLVQSGSELKKPGESVKISCKASGYTFTDYSINWVKQAPGQGLKWMGWINTETREPAYAYDFRGRFVFSLDTSASTAYLQISSLKAEDTAVYFCALDYSYAMDYWGQGTLVTVSSGGGGSEQKLISEEDLGGGGSHHHHHH
notes: Positive control in TCP format
BCMA-His antigen
  Kd: 0.0151 nM
  koff: 1.25e-05 s⁻¹
  kon: 825000 M⁻¹ s⁻¹

B5: TCP001-C (bispecific antibody)
chain: QLQLGASGGGLVQPGGSLRLSCALSGFTLRELDEFAIGWFRQAPGKEREGVSCISGTGGITHYADSVKGRFTISRDIAKTTVYLQMNSLNSEDTAVYYCAADERCTDRLIRPPTYWGQGTQVTVSSGGGGSGGGGSGGGGSQVQLVESGGGLVQPGGSLRLSCAASGSITSIYAIGWYRQAPGKLRELVAAITTSGNTFYRDSVKGRFTISRDNAKNTVSLQMNSLKSEDTAVYDCNGAPWGDHAPLVVSWDQGTQVTVSSGGGGSEQKLISEEDLGGGGSHHHHHH
notes: also called BCMA-TCP
BCMA expressed on cells
  EC50: 17.6 nM
BCMA-His antigen
  Kd: 0.587 nM
  koff: 0.000518 s⁻¹
  kon: 882000 M⁻¹ s⁻¹
[3]
  EC50: 13.4 nM

B6: TCP-MD (VHH)
VHH: QLQLGASGGGLVQPGGSLRLSCALSGFTLRELDEFAIGWFRQAPGKEREGVSCISGTGGITHYADSVKGRFTISRDIAKTTVYLQMNSLNSEDTAVYYCAADERCTDRLIRPPTYWGQGTQVTVSS
[3]
  EC50: 10.5 nM

B7: M2339(VHH), expressed as a hFc fusion protein (Fc fusion)
chain: QLQLGASGGGLVQPGGSLRLSCALSGFTLRELDEFAIGWFRQAPGKEREGVSCISGTGGITHYADSVKGRFTISRDIAKTTVYLQMNSLNSEDTAVYYCAADERCTDRLIRPPTYWGQGTQVTVSS
notes: VHH fused to human Fc; also called M2339-hFc; M2339-IgG1; not shown: human Fc (hFc)
[4]
  EC50 (read off the curve): 4 nM
MSLN-His antigen [5]
  Kd: 0.264 nM
  koff: 1.82e-05 s⁻¹
  kon: 69000 M⁻¹ s⁻¹

B8: M2339 VHH-6his (VHH)
VHH: QLQLGASGGGLVQPGGSLRLSCALSGFTLRELDEFAIGWFRQAPGKEREGVSCISGTGGITHYADSVKGRFTISRDIAKTTVYLQMNSLNSEDTAVYYCAADERCTDRLIRPPTYWGQGTQVTVSS
notes: not shown: 6xHis tag
MSLN Full - Fc
  Kd: 0.0165 nM
  koff: 1.36e-05 s⁻¹
  kon: 823000 M⁻¹ s⁻¹
MSLN I - Fc
  Kd: 0.179 nM
  koff: 6.49e-05 s⁻¹
  kon: 363000 M⁻¹ s⁻¹
MSLN I + II - Fc
  Kd: 0.366 nM
  koff: 0.000174 s⁻¹
  kon: 476000 M⁻¹ s⁻¹
MSLN II - Fc
  Kd: 0.999 nM
  koff: 0.000244 s⁻¹
  kon: 244000 M⁻¹ s⁻¹
MSLN II + III - Fc
  Kd: 0.0432 nM
  koff: 1.96e-05 s⁻¹
  kon: 454000 M⁻¹ s⁻¹
MSLN III - Fc
  Kd: 0.327 nM
  koff: 0.000185 s⁻¹
  kon: 566000 M⁻¹ s⁻¹

B9: TCP011-P (bispecific antibody)
chain: QLQLGASGGGLVQPGGSLRLSCALSGFTLRELDEFAIGWFRQAPGKEREGVSCISGTGGITHYADSVKGRFTISRDIAKTTVYLQMNSLNSEDTAVYYCAADERCTDRLIRPPTYWGQGTQVTVSSGGGGSGGGGSGGGGSDIQMTQTTSSLSASLGDRVTISCRASQDISKYLNWYQQKPDGTVKLLIYHTSRLHSGVPSRFSGSGSGTDYSLTISNLEQEDIATYFCQQGNTLPYTFGGGTKLEITKAGGGGSGGGGSGGGGSEVKLQESGPGLVAPSQSLSVTCTVSGVSLPDYGVSWIRQPPRKGLEWLGVIWGSETTYYNSALKSRLTIIKDNSKSQVFLKMNSLQTDDTAIYYCAKHYYYGGSYAMDYWGQGTSVTVSSGGGGSEQKLISEEDLGGGGSHHHHHH
notes: also called CD19-TCP; anti-M-ICAP VHH (M2339) - 3xGGGGS linker - anti-CD19 scFv (FMC063) - Myc and HIS
[6]
  EC50: 17.1 nM
CD19 expressed on cells
  EC50: 40.9 nM
